Patent US20120107330A1 (published 2012)

Columns and labels:
[1] = target: T1, human serum albumin (HSA, Sigma-Aldrich) (human, UniProt P02768 25-609); assay: BIAcore, HSA on CM5 chip
T1 construct: also called human albumin
Experimental: (§1) FIG. 23. BIAcore analysis for binding of DOM0100-AlbudAb in-line fusions to human serum albumin (HSA). HSA (Sigma-Aldrich) was coated on a BIAcore CM5 chip using EDC/NHS chemistry according to manufacturer's instructions. Subsequently, the DMS constructs, each consisting N-terminally to C-terminally of an anti-TNFR1 dAb-Linker-AlbudAb and identified in Table 6, were injected at 1 μM over the HSA surface and binding was monitored. […] The corresponding BIAcore trace for each DMS clone is indicated with an arrow.

[2] = target: T2, mouse serum albumin (MSA, Sigma-Aldrich) (mouse, UniProt P07724 25-608); assay: BIAcore, MSA on CM5 chip
T2 construct: also called mouse albumin
Experimental: as §1, with “22.” for “23.”, “mouse” for “human”, “(MSA). MSA” for “(HSA). HSA”, “MSA” for “HSA”
After expression and purification, all constructs were tested on the BIAcore for binding to both mouse and human serum albumin. The off-rates were determined and used to discriminate between the AlbudAbs for their suitability in prolonging the half-life of the fusion molecule. Whereas the linker had little influence on the affinity of the AlbudAb for albumin, a significant difference existed between the dAbs and their albumin affinity. The best AlbudAb for mouse binding was DOM7h-11-15 followed by DOM7m-16 and DOM7h-11-12 (FIG. 22).

[3] = target: T3, human TNFR1 (recombinant, R&D Systems cat no. 636-R1/CF, biotinylated) (human, UniProt P19438 30-211, limits assumed, biotinylated with EZ-Link NHS-LC-LC-biotin); assay: BIAcore, human TNFR1
T3 construct: it is not tied to the BIAcore reagent; also called p55; hTNFR1
T3 sequence (looked up): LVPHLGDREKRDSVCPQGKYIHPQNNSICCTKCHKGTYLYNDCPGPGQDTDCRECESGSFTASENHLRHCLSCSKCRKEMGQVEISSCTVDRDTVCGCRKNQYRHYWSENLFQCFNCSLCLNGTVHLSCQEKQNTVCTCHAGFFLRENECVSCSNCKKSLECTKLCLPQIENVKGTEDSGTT

[4] = target: T4, human TNFR1 on MRC-5 cells (human, UniProt P19438 30-455); assay: cell-based or functional assay
T4 sequence (looked up): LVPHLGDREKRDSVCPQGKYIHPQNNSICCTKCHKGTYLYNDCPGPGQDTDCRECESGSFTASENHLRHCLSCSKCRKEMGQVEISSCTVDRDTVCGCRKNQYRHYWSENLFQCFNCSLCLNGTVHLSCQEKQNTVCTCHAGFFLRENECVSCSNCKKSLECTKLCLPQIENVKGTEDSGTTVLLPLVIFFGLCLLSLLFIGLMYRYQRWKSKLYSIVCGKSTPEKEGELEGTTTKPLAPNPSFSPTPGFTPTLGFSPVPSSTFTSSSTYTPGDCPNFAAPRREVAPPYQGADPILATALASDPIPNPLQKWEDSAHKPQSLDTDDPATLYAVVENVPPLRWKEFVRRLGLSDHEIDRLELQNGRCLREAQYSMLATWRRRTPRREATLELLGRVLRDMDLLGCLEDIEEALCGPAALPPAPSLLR

[5] = target: T4, human TNFR1 on MRC-5 cells; assay: cell-based or functional assay; remark: listed apart in the source
[6] = target: T5, mouse TNFR1 on L929 cells (mouse, UniProt P25118 30-454); assay: cell-based or functional assay
T5 sequence (looked up): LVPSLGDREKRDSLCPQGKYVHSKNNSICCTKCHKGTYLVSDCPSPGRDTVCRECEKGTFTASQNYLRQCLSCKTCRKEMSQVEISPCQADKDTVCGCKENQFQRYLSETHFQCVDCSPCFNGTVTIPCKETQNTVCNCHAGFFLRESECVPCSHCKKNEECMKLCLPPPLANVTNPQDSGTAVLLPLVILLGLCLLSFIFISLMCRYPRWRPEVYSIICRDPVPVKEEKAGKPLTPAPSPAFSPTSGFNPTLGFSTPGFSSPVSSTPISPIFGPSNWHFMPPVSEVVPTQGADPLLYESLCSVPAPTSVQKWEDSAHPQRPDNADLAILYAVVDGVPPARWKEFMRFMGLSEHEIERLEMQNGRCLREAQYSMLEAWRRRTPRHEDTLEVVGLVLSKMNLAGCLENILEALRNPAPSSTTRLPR

[7] = target: T6, Cynomologus monkey TNFR1 on CYNOM-K1 cells (Cynomolgus monkey, UniProt Q2PFV5 30-455); assay: cell-based or functional assay
T6 sequence: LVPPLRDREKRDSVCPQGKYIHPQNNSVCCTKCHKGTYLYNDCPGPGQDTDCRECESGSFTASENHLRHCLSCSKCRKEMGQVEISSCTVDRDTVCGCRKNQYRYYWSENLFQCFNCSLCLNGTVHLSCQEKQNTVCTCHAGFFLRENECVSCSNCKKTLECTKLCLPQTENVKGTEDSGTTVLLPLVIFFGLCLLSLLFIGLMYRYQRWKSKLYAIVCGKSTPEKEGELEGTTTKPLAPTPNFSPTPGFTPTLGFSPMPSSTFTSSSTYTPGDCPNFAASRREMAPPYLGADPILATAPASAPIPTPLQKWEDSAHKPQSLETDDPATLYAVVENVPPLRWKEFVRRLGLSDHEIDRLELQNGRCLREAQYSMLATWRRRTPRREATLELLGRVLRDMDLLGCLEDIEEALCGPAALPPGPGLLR

[8] = target: T3, human TNFR1 (recombinant, R&D Systems …); assay: BIAcore, human TNFR1 on SA chip
Text: (§2) BIAcore was done to determine the association and dissociation rates of the different dAbs and in that way establish their binding affinity for both human and mouse TNFR1. Experiments were done using biotinylated TNFR1 (R&D Systems), of the respective species, coupled to streptavidin-coated BIAcore chips followed by injection of a concentration range of the dAbs.

[9] = target: T7, mouse TNFR1 (recombinant, R&D Systems cat no. 425-R1-050/CF, biotinylated) (mouse, UniProt P25118 22-212, biotinylated with EZ-Link NHS-LC-LC-biotin); assay: BIAcore, mouse TNFR1 on SA chip
T7 construct: also called murine TNFR1; biotinylated mouse TNFR1
T7 sequence (looked up): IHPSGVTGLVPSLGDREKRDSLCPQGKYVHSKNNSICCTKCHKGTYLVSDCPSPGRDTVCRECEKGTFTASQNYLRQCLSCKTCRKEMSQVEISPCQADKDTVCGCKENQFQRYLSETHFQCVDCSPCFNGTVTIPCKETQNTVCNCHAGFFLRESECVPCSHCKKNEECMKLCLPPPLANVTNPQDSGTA
Text: as §2

T1 sequence (P02768 25-609 limits assumed): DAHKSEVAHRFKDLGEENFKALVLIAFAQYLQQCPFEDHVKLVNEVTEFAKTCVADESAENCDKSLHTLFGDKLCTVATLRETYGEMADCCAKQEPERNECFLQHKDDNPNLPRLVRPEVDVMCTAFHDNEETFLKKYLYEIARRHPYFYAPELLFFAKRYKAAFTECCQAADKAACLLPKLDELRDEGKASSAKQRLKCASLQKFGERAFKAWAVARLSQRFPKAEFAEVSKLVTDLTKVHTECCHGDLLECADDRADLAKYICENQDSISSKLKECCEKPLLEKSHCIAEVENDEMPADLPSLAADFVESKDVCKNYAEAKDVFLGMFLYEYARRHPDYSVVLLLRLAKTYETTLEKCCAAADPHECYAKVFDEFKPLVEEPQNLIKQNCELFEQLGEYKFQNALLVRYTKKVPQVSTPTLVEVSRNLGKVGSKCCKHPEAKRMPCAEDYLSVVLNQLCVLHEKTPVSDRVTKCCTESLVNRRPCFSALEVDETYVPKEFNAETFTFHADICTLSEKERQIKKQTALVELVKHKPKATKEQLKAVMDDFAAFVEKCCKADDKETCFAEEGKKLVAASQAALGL

B1: DMS0191 (bispecific antibody)
chain: EVQLLESGGGLVQPGGSLRLSCAASGFTFVKYSMGWVRQAPGKGPEWVSQISNTGDRTYYADSVKGRFTISRDNSKNTLYLQMNSLRAEDTAVYYCAIYTGRWEPFDYWGQGTLVTVSSASTDIQMTQSPSSLSASVGDRVTITCRASQSIIKHLKWYQQKPGKAPKLLIYGASRLQSGVPSRFSGSGSGTDFTLTISSLQPEDFATYYCQQGTRWPQTFGQGTKVEIKRAAAEQKLISEEDLN
notes: anti-TNFR1 dAb / AlbudAb in-line fusion
Does B1 bind [1]?
Result: no binding (tested: 1 µM)

And the koff [2]?
The koff was 0.11 s⁻¹.

B2: DMS0192 (bispecific antibody)
chain: EVQLLESGGGLVQPGGSLRLSCAASGFTFVKYSMGWVRQAPGKGPEWVSQISNTGDRTYYADSVKGRFTISRDNSKNTLYLQMNSLRAEDTAVYYCAIYTGRWEPFDYWGQGTLVTVSSASTSGPSDIQMTQSPSSLSASVGDRVTITCRASQSIIKHLKWYQQKPGKAPKLLIYGASRLQSGVPSRFSGSGSGTDFTLTISSLQPEDFATYYCQQGARWPQTFGQGTKVEIKRAAAEQKLISEEDLN
notes: as for B1
Which results are given for B2?
binding result [1]: no binding (tested: 1 µM); koff [2]: 0.09 s⁻¹

B3: DMS0189 (bispecific antibody)
chain: EVQLLESGGGLVQPGGSLRLSCAASGFTFVKYSMGWVRQAPGKGPEWVSQISNTGDRTYYADSVKGRFTISRDNSKNTLYLQMNSLRAEDTAVYYCAIYTGRWEPFDYWGQGTLVTVSSASTDIQMTQSPSSLSASVGDRVTITCRASRPIGTTLSWYQQKPGKAPKLLILWNSRLQSGVPSRFSGSGSGTDFTLTISSLQPEDFATYYCAQAGTHPTTFGQGTKVEIKRAAAEQKLISEEDLN
notes: as for B1
Which koff [1] does the source give for B3 here?
Its koff is 0.017 s⁻¹.

And the koff [2]?
The koff was 0.13 s⁻¹.

B4: DOM1h-574-12 (other)
VH: EVQLLESGGGLVQPGGSLRLSCAASGFTFVKYSMGWVRQAPGKGLEWVSQISNTGDHTYYADSVKGRFTISRDNSKNTLYLQMNSLRAEDTAVYYCAKYTGRWEPFDYWGQGTLVTVSS
notes: VH dAb
For B4, which Kd [3] is on record?
Its Kd is 23 nM.

What about the “MRC-5 ND50 (TNFα-mediated IL-8 release)” value [4] of the same binder?
The value was 130 nM.

B5: DOM1h-574-17 (other)
VH: EVQLLESGGGLVQPGGSLRLSCAASGFTFVKYSMGWVRQAPGKGPEWVSQISNTGDHTYYADSVKGRFTISRDNSKNTLYLQMNSLRAEDTAVYYCAIYTGRWEPFDYWGQGTLVTVSS
notes: VH dAb
For B5, which Kd [3] is on record?
Its Kd is 8.4 nM.

And the “MRC-5 ND50 (TNFα-mediated IL-8 release)” value [4]?
Its value is 20 nM.

B6: DOM1h-574-139 (other)
VH: EVQLLESGGGLVQPGGSLRLSCAASGFTFLKYSMGWVRQAPGKGLEWVSQISDTADRTYYAHSVKGRFTISRDNSKNTLYLQMNSLRAEDTAVYYCAIYTGRWAPFEYWGQGTLVTVSS
notes: VH dAb
What does the source list for B6?
Human MRC5 ND50 [5]: 1.1 nM; Mouse L929 ND50 [6]: 28 nM; Cynomologus CYNOM-K1 ND50 [7]: 1.8 nM; Kd [8]: 0.27 nM; koff [8]: 3.7e-05 s⁻¹; kon [8]: 140000 M⁻¹ s⁻¹; Kd [9]: 4.4 nM; koff [9]: 0.0003 s⁻¹; kon [9]: 70000 M⁻¹ s⁻¹

B7: DOM1h-574-162 (other)
VH: EVQLLESGGGLVQPGGSLRLSCAASGFTFFKYSMGWVRQAPGKGLEWVSQISDTADRTYYSHSVKGRFTISRDNSKNTLYLQMNSLRAEDTAVYYCAIYTGRWVPFEYWGQGTLVTVSS
notes: VH dAb
What does the source list for B7?
Human MRC5 ND50 [5]: 1.2 nM; Mouse L929 ND50 [6]: 27 nM; Kd [8]: 0.15 nM; koff [8]: 4.4e-05 s⁻¹; kon [8]: 290000 M⁻¹ s⁻¹; Kd [9]: 2.5 nM; koff [9]: 0.00034 s⁻¹; kon [9]: 140000 M⁻¹ s⁻¹

B8: DOM1h-574-156 (other)
VH: EVQLLESGGGLVQPGGSLRLSCAASGFTFFKYSMGWVRQAPGKGLEWVSQISDTADRTYYAHSVKGRFTISRDNSKNTLYLQMNSLRAEDTAVYYCAIYTGRWVPFEYWGQGTLVTVSS
notes: VH dAb
Which “Human MRC5 ND50” value [5] does the source give for B8 here?
Its value is 0.9 nM.

And the “Mouse L929 ND50” value [6]?
Its value is 22 nM.

And the Kd [8]?
Its Kd is 0.15 nM.

What about the koff [8] of the same binder?
Its koff is 4.3e-05 s⁻¹.

What about the kon [8] of the same binder?
Its kon is 300000 M⁻¹ s⁻¹.

What about the Kd [9] of the same binder?
Its Kd is 2.1 nM.

And the koff [9]?
Its koff is 0.0003 s⁻¹.

And the kon [9]?
Its kon is 140000 M⁻¹ s⁻¹.

B9: DOM1h-574-13 (other)
VH: EVQLLESGGGLVQPGGSLRLSCAASGFTFVKYSMGWVRQAPGKGLEWVSQISNTGDRTYYADSVKGRFTISRDNSKNTLYLQMNSLRAEDTAVYYCAKYTGRWEPFDYWGQGTLVTVSS
notes: VH dAb
Which Kd [3] does the source give for B9 here?
Its Kd is 44 nM.

And the “MRC-5 ND50 (TNFα-mediated IL-8 release)” value [4]?
Its value is 300 nM.

B10: DOM1h-574-18 (other)
VH: EVQLLESGGGLVQPGGSLRLSCAASGFTFGKYSMGWVRQAPGKDLEWVSQISNTGDRTYYADSVKGRFTISRDNSKNTLYLQMNSLRAEDTAVYYCAIYTGRWEPFDYWGQGTLVTVSS
notes: VH dAb
With B10 as the binder, how does the Kd [3] read?
The Kd was 4.1 nM.

What about the “MRC-5 ND50 (TNFα-mediated IL-8 release)” value [4] of the same binder?
The value was 17 nM.

B11: DMS0190 (bispecific antibody)
chain: EVQLLESGGGLVQPGGSLRLSCAASGFTFVKYSMGWVRQAPGKGPEWVSQISNTGDRTYYADSVKGRFTISRDNSKNTLYLQMNSLRAEDTAVYYCAIYTGRWEPFDYWGQGTLVTVSSASTSGPSDIQMTQSPSSLSASVGDRVTITCRASRPIGTTLSWYQQKPGKAPKLLILWNSRLQSGVPSRFSGSGSGTDFTLTISSLQPEDFATYYCAQAGTHPTTFGQGTKVEIKRAAAEQKLISEEDLN
notes: as for B1
With B11 as the binder, how does the koff [1] read?
Its koff is 0.019 s⁻¹.

What about the koff [2] of the same binder?
The koff was 0.16 s⁻¹.
